{"source": "paper PMC6876712", "about": "“MglA functions as a three-state GTPase to control movement reversals of Myxococcus xanthus” (Nature Communications, 2019)", "binders": {"B1": {"name": "MglB (MglB-1 construct, 34-residue N-terminal tag) (natural protein, M. xanthus)", "chain": "GTQLVMYEEEFTKINAVCDRLTKDANAKVVFLVDKNGQLISSAGQTQNIDTTSLASLTAGNVAAMGGLAKLIGENEFPNQFHEGAKDSLYMTIVGSRVVLVVIFDNRTSLGLVRLRIKKASDELTKIFESLVKKTDSPGAGSPFAEISDDDIDNLFSE", "notes": "MglB, GAP of MglA, Myxococcus xanthus; residues 133-165 not visible in the crystal; No cleavage of the tag is described"}, "B2": {"name": "MglB (MglB-2 construct, 6xHis tag cleaved by TEV protease), Q1DB03 1-159 (natural protein)", "chain": "MGTQLVMYEEEFTKINAVCDRLTKDANAKVVFLVDKNGQLISSAGQTQNIDTTSLASLTAGNVAAMGGLAKLIGENEFPNQFHEGAKDSLYMTIVGSRVVLVVIFDNRTSLGLVRLRIKKASDELTKIFESLVKKTDSPGAGSPFAEISDDDIDNLFSE"}}, "key": {"[1]": {"biological_target": "the molecule itself", "test": "crystal structure; unbound MglB (MglB-1), form 2 crystals in 0.1 M MES pH 6, 0.15 M ammonium sulfate, 15% PEG 4000; 20 molecules in the asymmetric unit; 2.39 Å"}, "[2]": {"biological_target": "T1, MglB (MglB-2 construct, 6xHis tag cleaved by TEV protease) (M. xanthus), Q1DB03", "T1 chain": "B2 chain", "test": "crystal structure; MglA-GTPγS/MglB complex; equimolar MglA and MglB with 20x GTPγS, purified by SEC; crystals in 0.2 M HEPES pH 7, 16% PEG 4000; 2.8 Å", "conditions": "remark: other sources report otherwise"}, "[3]": {"biological_target": "T1, MglB (MglB-2 construct, 6xHis tag …)", "test": "SEC-MALS; MglB at 3 mg/mL in 20 mM Tris pH 7.5, 50 mM NaCl, 10 mM MgCl2; Superdex 75 10/300 GL", "conditions": "remark: other sources report otherwise"}}}
{"binder": "B1", "values": [{"measurement": "stoichiometry N", "setting": "[1]", "value": 4}]}
{"binder": "B2", "values": [{"measurement": "stoichiometry N", "setting": "[2]", "value": 2}, {"measurement": "stoichiometry N", "setting": "[3]", "value": 2}]}
